Our source for the IL-2 secretion (RLU), difference between clusters 1 (anti-CD3 alone) and 3 (anti-CD3 plus B7RP1-Fc) and IL-2 secretion by Jurkat cells, 2.5 µg/mL anti-CD3 antibody plus 50 µg/mL B7RP1-Fc against anti-CD3 antibody alone values is patent US10047138.

Assay [1] addresses full length human wild type ICOS (human) (UniProt Q9Y6W8). The assay can be described thus: cell-based or functional assay.
The target of assay [2] is ICOS-CD3 III fusion protein (human). The assay can be described thus: cell-based or functional assay.
ICOS-CD3 III fusion protein (human), sequence (chain, as listed by the source limits assumed): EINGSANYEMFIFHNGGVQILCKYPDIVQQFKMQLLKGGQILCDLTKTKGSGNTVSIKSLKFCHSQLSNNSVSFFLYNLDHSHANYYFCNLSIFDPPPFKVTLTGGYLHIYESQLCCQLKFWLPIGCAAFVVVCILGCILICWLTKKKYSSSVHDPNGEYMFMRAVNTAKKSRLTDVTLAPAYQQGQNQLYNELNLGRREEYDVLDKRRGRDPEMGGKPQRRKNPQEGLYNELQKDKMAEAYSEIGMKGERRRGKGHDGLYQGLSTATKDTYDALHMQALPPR

UniProt Q9Y6W8, sequence (Q9Y6W8 21-199): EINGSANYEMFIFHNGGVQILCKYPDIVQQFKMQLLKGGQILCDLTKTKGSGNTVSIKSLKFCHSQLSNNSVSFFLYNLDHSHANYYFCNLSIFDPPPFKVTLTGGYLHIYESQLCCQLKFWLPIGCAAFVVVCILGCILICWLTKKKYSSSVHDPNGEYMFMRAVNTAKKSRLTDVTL

Consider “B7RP1-Fc protein (from UniProt O75144 19-253) (Fc fusion)”, for which, in assay [1], the IL-2 secretion (RLU), difference between clusters 1 (anti-CD3 alone) and 3 (anti-CD3 plus B7RP1-Fc) was below 8 fold; the IL-2 secretion by Jurkat cells, 2.5 µg/mL anti-CD3 antibody plus 50 µg/mL B7RP1-Fc against anti-CD3 antibody alone was below 17 fold. Further, in assay [2], the IL-2 secretion (RLU), difference between clusters 1 (anti-CD3 alone) and 3 (anti-CD3 plus B7RP1-Fc) is above 200 fold; the IL-2 secretion by Jurkat cells, 2.5 µg/mL anti-CD3 antibody plus 50 µg/mL B7RP1-Fc against anti-CD3 antibody alone was above 170 fold.
